Data from the supplement of paper PMC7125110.
± gives the standard error. Variants at the floor of the assay were thinned out.

B1: glmS ribozyme (parent)
chain: AUAAAAGCGCCAGAACUACAGAAAUGUAGUUGACGAGGAGGAGGUUUAUCGAAUUUUCGGCGGAUGCCUCCAAA

Variants of: B1
Assay: self-cleavage kobs at 2500 uM GlcN6P; higher = faster cleavage; RNA array
Settings: with glucosamine-6-phosphate
Procedure, shortened: (§1)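 Tiles bearing barcoded ribozyme variants, transcribed in situ by E. coli RNA polymerase on sequenced MiSeq chips, were imaged over ~14 h at 37 °C using a hybridised Cy3 probe. Glucosamine-6-phosphate was supplied at 40 μM to 10 mM in HEPES/KCl/Mg(OAc)2 buffer. kobs came from one- or two-exponential decay fits to normalised per-tile medians, and weighted Michaelis–Menten fits then provided kcat and KM.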

| Variant | self-cleavage kobs at 2500 uM GlcN6P [s⁻¹] |
| --- | --- |
| G13C A36G A64U C70G | < 1e-05 |
| A15G G51U C61A | < 1e-05 |
| A14C G60U C68U | < 1e-05 |
| A12U G44U C67U | 0.0167 ± 0.0049 |
| A14U U30A C71G | 5.1e-05 ± 1.2e-05 |
| C11U U30C A52G A64U | < 1e-05 |
| C16A G32U G43U C61G | < 1e-05 |
| A14G G29A C70G | 0.000126 ± 4e-05 |
| A14C A15G G62C C67A | < 1e-05 |
| A15U G32C A36C G40C | < 1e-05 |
| G13C C16G U69G | 7.16e-05 ± 3.5e-05 |
| A12U U56A C68A | 6.47e-05 ± 1.9e-05 |
| A15C G37U A39G | < 1e-05 |
| C16G A36G U69G | 4.76e-05 ± 2.4e-05 |
| A12U A15G U45C C50G C61A | < 1e-05 |
| A12C A15G G66U C67A | 0.000636 ± 0.00013 |
| C16U G37U A42G G51U | < 1e-05 |
| A15G U55A A64U | 9.74e-05 ± 1.8e-05 |
| A15U G29A G62A | < 1e-05 |
| A14C A15C A36U G37U U49A | < 1e-05 |

| Variant | self-cleavage kobs at 2500 uM GlcN6P [s⁻¹] |
| --- | --- |
| C16A G43U G51A | < 1e-05 |
| A14G C67G C68A | 2.78e-05 ± 1.3e-05 |
| A15C A39G U47G A53U | 0.000235 ± 8.5e-05 |
| A12G G13U G51U G63U C70A | 0.000271 ± 9.9e-05 |
| A14U C16G G38C G41C U47G | < 1e-05 |
| G13C U55A | 6.85e-05 ± 1.6e-05 |
| C16U G32U U46G | 6.51e-05 ± 2.5e-05 |
| C16G G29C A53U | 0.00684 ± 0.0022 |
| A14G U30C A39C U54A | 0.000132 ± 2.6e-05 |
| A12G U46G C71A | 5e-05 ± 2e-05 |
| A14C U55A C68A | 6.41e-05 ± 2.5e-05 |
| A12U C16A U46C | 0.000144 ± 4.6e-05 |
| A12G A39C G51U U56A | < 1e-05 |
| G13A U30G U56A | 7.43e-05 ± 2.5e-05 |
| A14C U30G C58G | 5.75e-05 ± 2.4e-05 |
| A14U G43C U45G | 0.000172 ± 4.1e-05 |
| A14U G43C A53U G59C | < 1e-05 |
| A14G A52U A53G | 0.000141 ± 3.3e-05 |
| C16U U45G U54G | 0.0032 ± 0.001 |

Variants of: B1
Assay: self-cleavage kobs at 10000 uM GlcN6P; higher = faster cleavage; RNA array
Settings: with glucosamine-6-phosphate
Procedure, shortened: as §1

| Variant | self-cleavage kobs at 10000 uM GlcN6P [s⁻¹] |
| --- | --- |
| A15U G29A G62A | < 1e-05 |
| C16U G32U U46G | 0.000138 ± 2.5e-05 |
| A14G U30C A39C U54A | 0.000156 ± 2.5e-05 |
| A12U C16A U46C | 0.000331 ± 7.6e-05 |
| A14U G43C U45G | 0.000252 ± 6.9e-05 |
